Here are results for one protein from patent US20190225652A1, “GENERATION OF PEPTIDES” (Hexima Limited, priority 2015, published 2019).

For data set [1], the target named is T1, synthetic linear kalata B1 precursor carrying the native C-terminal pro-hepta-peptide GLPSLAA (wt kB1 precursor).
T1 chain: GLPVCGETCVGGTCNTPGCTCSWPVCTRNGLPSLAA

The target of data set [2] is T2, R1 peptide derivative VFAEFLPLFSKFGSRMHILKNGL
T2 chain: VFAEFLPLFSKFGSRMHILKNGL

The target in data set [3] is T3, R1 peptide derivative KLVFAEFLPLFSKFGSRMHILKNGL
T3 chain: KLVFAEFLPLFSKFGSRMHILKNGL

In data set [4] the target is T4, R1 peptide derivative GLPVFAEFLPLFSKFGSRMHILKSTRNGLP
T4 chain: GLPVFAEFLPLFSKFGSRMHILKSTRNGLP

The target of data set [5] is T5, R1 peptide derivative GLVFAEFLPLFSKFGSRMHILKNG
T5 chain: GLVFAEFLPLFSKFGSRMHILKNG

In data set [6] the target is T6, R1 peptide derivative QLVFAEFLPLFSKFGSRMHILKNGL
T6 chain: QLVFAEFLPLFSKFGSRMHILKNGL

Data set [7] concerns the target T7, R1 peptide derivative GLVFAEFLPLFSKFGSRMHILKNGL
T7 chain: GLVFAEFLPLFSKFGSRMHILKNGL

B1: recombinant Oldenlandia affinis asparaginyl endopeptidase OaAEP1b, activated (rOaAEP1b) (protein)
chain: MVRYLAGAVLLLVVLSVAAAVSGARDGDYLHLPSEVSRFFRPQETNDDHGEDSVGTRWAVLIAGSKGYANYRHQAGVCHAYQILKRGGLKDENIVVFMYDDIAYNESNPRPGVIINSPHGSDVYAGVPKDYTGEEVNAKNFLAAILGNKSAITGGSGKVVDSGPNDHIFIYYTDHGAAGVIGMPSKPYLYADELNDALKKKHASGTYKSLVFYLEACESGSMFEGILPEDLNIYALTSTNTTESSWCYYCPAQENPPPPEYNVCLGDLFSVAWLEDSDVQNSWYETLNQQYHHVDKRISHASHATQYGNLKLGEEGLFVYMGSNPANDNYTSLDGNALTPSSIVVNQRDADLLHLWEKFRKAPEGSARKEVAQTQIFKAMSHRVHIDSSIKLIGKLLFGIEKCTEILNAVRPAGQPLVDDWACLRSLVGTFETHCGSLSEYGMRHTRTIANICNAGISEEQMAEAASQACASIP
As for B1, the Km in data set [1] was 212 (±76) µM for Km. Also, the kcat in data set [1] is listed as 0.53 (±0.1) s^-1 for kcat. Moreover, the kcat/Km in data set [1] was 2,500 M^-1 s^-1 for kcat/Km. Moreover, the Cyclic product (%) in data set [2] worked out at 49.6%; in data set [3] it was 82.2%; in data set [4], 78.8%; in data set [6], 93.1%; in data set [7] it was 92.9%. Moreover, the Linear precursor (%) in data set [2] amounted to 27.7%; in data set [3], 17.8%; in data set [4] it was 21.2%; in data set [5], 100%; in data set [6], 6.9%; in data set [7], 7.1%. The protein further registered a Linear product (%) in data set [2] of 27.7%.
